Consider three molecules from article PMC4078514 (2014).

B1: [99mTc(CO)3(16)] BBS reference conjugate (peptide)
chain: QWAVGHL
modifications: not fully specified (N-terminus, C-terminus); also: triazole 99mTc(CO)3 chelate, methyl group in place of shepherdin
B2: [99mTc(CO)3(15)] BBS-scrambled shepherdin(79-83) conjugate (peptide)
chain: QWAVGHL
modifications: not fully specified (C-terminus); also: (βAla)3 spacer, triazole-Lys 99mTc(CO)3 chelate, succinyl-linked scrambled shepherdin SGKHS
B3: [99mTc(CO)3(14)] BBS-shepherdin(79-83) conjugate (peptide)
chain: QWAVGHL
modifications: not fully specified (C-terminus); also: (βAla)3 spacer, triazole-Lys 99mTc(CO)3 chelate, succinyl-linked shepherdin KHSSG

No end group written: not given here.

In this assay the target is gastrin-releasing peptide receptor (GRP-r) (Homo sapiens, UniProt P30550). Nature of the assay: radioligand saturation binding on PC-3 cells.
gastrin-releasing peptide receptor (GRP-r), sequence (P30550 whole entry): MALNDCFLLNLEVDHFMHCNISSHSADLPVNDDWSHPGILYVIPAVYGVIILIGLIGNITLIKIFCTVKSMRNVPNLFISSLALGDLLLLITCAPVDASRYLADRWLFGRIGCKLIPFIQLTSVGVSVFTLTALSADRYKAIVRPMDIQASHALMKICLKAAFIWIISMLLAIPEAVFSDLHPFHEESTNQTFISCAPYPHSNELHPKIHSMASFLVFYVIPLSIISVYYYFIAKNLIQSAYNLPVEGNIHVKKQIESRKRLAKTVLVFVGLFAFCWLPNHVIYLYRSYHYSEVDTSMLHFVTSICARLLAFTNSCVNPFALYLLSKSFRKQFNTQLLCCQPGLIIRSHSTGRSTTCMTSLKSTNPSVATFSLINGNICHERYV
Usually Kd stands for the equilibrium constant for the complex coming apart. B1 displayed a Kd of 5.6 nM.
Then B2, with 11.3 nM; and B3, with 10.9 nM.
